# According to ChEMBL document CHEMBL1124237, “Linear free energy relationship studies of enzyme active site binding: thymidylate synthase” (J Med Chem, 1988):
# B1: Thymidylate synthase (Homo sapiens), P04818 (protein)
# chain: MPVAGSELPRRPLPPAAQERDAEPRPPHGELQYLGQIQHILRCGVRKDDRTGTGTLSVFGMQARYSLRDEFPLLTTKRVFWKGVLEELLWFIKGSTNAKELSSKGVKIWDANGSRDFLDSLGFSTREEGDLGPVYGFQWRHFGAEYRDMESDYSGQGVDQLQRVIDTIKTNPDDRRIIMCAWNPRDLPLMALPPCHALCQFYVVNSELSCQLYQRSGDMGLGVPFNIASYALLTYMIAHITGLKPGDFIHTLGDAHIYLNHIEPLKIQLQREPRPFPKLRILRKVEKIDDFKAEDFQIEGYNPHPTIKMEMAV
# B2: Thymidylate synthase (Lactobacillus casei), P00469 (protein)
# chain: MLEQPYLDLAKKVLDEGHFKPDRTHTGTYSIFGHQMRFDLSKGFPLLTTKKVPFGLIKSELLWFLHGDTNIRFLLQHRNHIWDEWAFEKWVKSDEYHGPDMTDFGHRSQKDPEFAAVYHEEMAKFDDRVLHDDAFAAKYGDLGLVYGSQWRAWHTSKGDTIDQLGDVIEQIKTHPYSRRLIVSAWNPEDVPTMALPPCHTLYQFYVNDGKLSLQLYQRSADIFLGVPFNIASYALLTHLVAHECGLEVGEFIHTFGDAHLYVNHLDQIKEQLSRTPRPAPTLQLNPDKHDIFDFDMKDIKLLNYDPYPAIKAPVAV
# B3: Thymidylate synthase (Mus musculus), P07607 (protein)
# chain: MLVVGSELQSDAQQLSAEAPRHGELQYLRQVEHILRCGFKKEDRTGTGTLSVFGMQARYSLRDEFPLLTTKRVFWKGVLEELLWFIKGSTNAKELSSKGVRIWDANGSRDFLDSLGFSARQEGDLGPVYGFQWRHFGAEYKDMDSDYSGQGVDQLQKVIDTIKTNPDDRRIIMCAWNPKDLPLMALPPCHALCQFYVVNGELSCQLYQRSGDMGLGVPFNIASYALLTYMIAHITGLQPGDFVHTLGDAHIYLNHIEPLKIQLQREPRPFPKLKILRKVETIDDFKVEDFQIEGYNPHPTIKMEMAV
# What was measured:
# [1] = substrate: COC(=O)c1ccc(-c2cn([C@H]3C[C@H](O)[C@@H](COP(=O)(O)O)O3)c(=O)[nH]c2=O)cc1; conditions: Homo sapiens
# Description: (§1) Inhibitory effect on human lymphoblast (Molt/4F) thymidylate synthase
# [2] = substrate: N#Cc1ccc(-c2cn([C@H]3C[C@H](O)[C@@H](COP(=O)(O)O)O3)c(=O)[nH]c2=O)cc1; conditions: Homo sapiens
# Description: as §1
# [3] = substrate: NC(=O)c1ccc(-c2cn([C@H]3C[C@H](O)[C@@H](COP(=O)(O)O)O3)c(=O)[nH]c2=O)cc1; conditions: Homo sapiens
# Description: as §1
# [4] = substrate: O=c1[nH]c(=O)n([C@H]2C[C@H](O)[C@@H](COP(=O)(O)O)O2)cc1-c1ccc(O)cc1; conditions: Homo sapiens
# Description: as §1
# [5] = substrate: COC(=O)c1ccc(-c2cn([C@H]3C[C@H](O)[C@@H](COP(=O)(O)O)O3)c(=O)[nH]c2=O)cc1; conditions: Lacticaseibacillus casei
# Description: (§2) Inhibitory effect against Lactobacillus casei thymidylate synthase
# [6] = substrate: N#Cc1ccc(-c2cn([C@H]3C[C@H](O)[C@@H](COP(=O)(O)O)O3)c(=O)[nH]c2=O)cc1; conditions: Lacticaseibacillus casei
# Description: as §2
# [7] = substrate: NC(=O)c1ccc(-c2cn([C@H]3C[C@H](O)[C@@H](COP(=O)(O)O)O3)c(=O)[nH]c2=O)cc1; conditions: Lacticaseibacillus casei
# Description: as §2
# [8] = substrate: O=c1[nH]c(=O)n([C@H]2C[C@H](O)[C@@H](COP(=O)(O)O)O2)cc1-c1ccc(O)cc1; conditions: Lacticaseibacillus casei
# Description: as §2
# [9] = substrate: COC(=O)c1ccc(-c2cn([C@H]3C[C@H](O)[C@@H](COP(=O)(O)O)O3)c(=O)[nH]c2=O)cc1; conditions: Mus musculus
# Description: (§3) Inhibitory effect on murine leukemia (L1210) thymidylate synthase
# [10] = substrate: N#Cc1ccc(-c2cn([C@H]3C[C@H](O)[C@@H](COP(=O)(O)O)O3)c(=O)[nH]c2=O)cc1; conditions: Mus musculus
# Description: as §3
# [11] = substrate: NC(=O)c1ccc(-c2cn([C@H]3C[C@H](O)[C@@H](COP(=O)(O)O)O3)c(=O)[nH]c2=O)cc1; conditions: Mus musculus
# Description: as §3
# [12] = substrate: O=c1[nH]c(=O)n([C@H]2C[C@H](O)[C@@H](COP(=O)(O)O)O2)cc1-c1ccc(O)cc1; conditions: Mus musculus
# Description: as §3
protein,measurement,setting,value
B1,Km,[1],1.38 µM
same,Km,[2],1.51 µM
same,Km,[3],1.48 µM
same,Km,[4],1.54 µM
B2,Km,[5],4.19 µM
same,Km,[6],4.37 µM
same,Km,[7],4.01 µM
same,Km,[8],4.8 µM
B3,Km,[9],1.28 µM
same,Km,[10],1.27 µM
same,Km,[11],1.28 µM
same,Km,[12],1.28 µM
